Reference: US20240376151A1, “STAPLED PEPTIDES AND METHODS THEREOF” (FOG PHARMACEUTICALS, INC., priority 2022, published 2024)

How the values were obtained:
beta-catenin = molecular target: T1, beta-catenin (Homo sapiens, UniProt P35222); experiment: Phage Library Screening with NGS, beta-catenin; assay type: binding; conditions: for Target Concentration 10 (phage screen NGS readout): beta-catenin target concentration 10; for Target Concentration 10 (phage screen NGS readout) / Target Concentration 30 (phage screen NGS readout) / Target Concentration 100 (phage screen NGS readout) / Target Concentration 300 (phage screen NGS readout): no competitor; for Target Concentration 30 (phage screen NGS readout): beta-catenin target concentration 30; for Target Concentration 100 (phage screen NGS readout): beta-catenin target concentration 100; for Target Concentration 300 (phage screen NGS readout): beta-catenin target concentration 300; for Target Concentration 1000 (phage screen NGS readout): beta-catenin target concentration 1000
T1 construct: made in house; host or cells: E. coli BL21 (DE3) pLysS
T1 sequence (P35222 134-665): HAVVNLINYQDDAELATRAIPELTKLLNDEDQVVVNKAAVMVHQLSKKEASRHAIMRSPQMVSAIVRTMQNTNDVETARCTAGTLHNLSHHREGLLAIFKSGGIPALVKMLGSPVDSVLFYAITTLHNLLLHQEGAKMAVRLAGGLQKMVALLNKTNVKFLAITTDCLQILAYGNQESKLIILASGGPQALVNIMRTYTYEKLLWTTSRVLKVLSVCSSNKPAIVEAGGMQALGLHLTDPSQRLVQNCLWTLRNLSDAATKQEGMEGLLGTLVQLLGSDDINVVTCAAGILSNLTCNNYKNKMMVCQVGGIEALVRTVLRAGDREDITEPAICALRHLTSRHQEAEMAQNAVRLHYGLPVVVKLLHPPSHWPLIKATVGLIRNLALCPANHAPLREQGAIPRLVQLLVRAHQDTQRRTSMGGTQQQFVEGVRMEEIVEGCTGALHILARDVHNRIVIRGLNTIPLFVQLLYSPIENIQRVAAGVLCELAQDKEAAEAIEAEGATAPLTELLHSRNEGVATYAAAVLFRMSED

RNF31 PUB domain = molecular target: T2, RNF31 PUB domain (Homo sapiens, UniProt Q96EP0); experiment: Phage Library Screening with NGS, RNF31 PUB domain; assay type: binding; conditions: for Phage library screen NGS readout, Target Concentration 10 / Phage library screen NGS readout, Target Concentration 30 / Phage library screen NGS readout, Target Concentration 100 / Phage library screen NGS readout, Target Concentration 300 / Phage library screen NGS readout, Target Concentration 1000: RNF31 PUB domain clusters C41-C45; for Phage library screen NGS readout, BLANK: clusters C41-C45
T2 construct: MBP-TEV (N, cleaved yes); made in house; host or cells: E. coli BL21 (DE3) pLysS
T2 sequence (Q96EP0 1-179): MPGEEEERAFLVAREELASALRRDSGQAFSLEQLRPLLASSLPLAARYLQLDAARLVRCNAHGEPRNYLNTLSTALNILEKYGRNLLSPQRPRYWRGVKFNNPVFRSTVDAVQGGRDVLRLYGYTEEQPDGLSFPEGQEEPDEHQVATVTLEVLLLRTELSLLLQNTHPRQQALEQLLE

[1] = target concentration 1000, first column
[2] = target concentration 1000, second column

Target Concentration BLANK (phage screen NGS readout) (beta-catenin; first column)	Target Concentration BLANK (phage screen NGS readout) (beta-catenin; fourth column)	Target Concentration BLANK (phage screen NGS readout) (beta-catenin; second column)	Target Concentration BLANK (phage screen NGS readout) (beta-catenin; third column)	Target Concentration 10 (phage screen NGS readout) (beta-catenin)	Target Concentration 30 (phage screen NGS readout) (beta-catenin)	Target Concentration 100 (phage screen NGS readout) (beta-catenin)	Target Concentration 300 (phage screen NGS readout) (beta-catenin)	Target Concentration 1000 (phage screen NGS readout) (beta-catenin; first 1000 column)	Phage library screen NGS readout, Target Concentration 10 (RNF31 PUB domain)	Phage library screen NGS readout, Target Concentration 30 (RNF31 PUB domain)	Phage library screen NGS readout, Target Concentration 100 (RNF31 PUB domain)	Phage library screen NGS readout, Target Concentration 300 (RNF31 PUB domain)	Phage library screen NGS readout, Target Concentration 1000 (RNF31 PUB domain; [1])	Phage library screen NGS readout, Target Concentration 1000 (RNF31 PUB domain; [2])	Phage library screen NGS readout, BLANK (RNF31 PUB domain; column 1 of 5)	Phage library screen NGS readout, BLANK (RNF31 PUB domain; column 2 of 5)	Phage library screen NGS readout, BLANK (RNF31 PUB domain; column 3 of 5)	Phage library screen NGS readout, BLANK (RNF31 PUB domain; column 4 of 5)	Phage library screen NGS readout, BLANK (RNF31 PUB domain; column 5 of 5)	Molecule	further results
0	0	0	0	0	0	1	5	14	–	–	–	–	–	–	–	–	–	–	–	DPAALSCYQAAFHCQYY	Target Concentration 1000 (phage screen NGS readout) (beta-catenin; second 1000 column): 17
–	–	–	–	–	–	–	–	–	0	1	0	0	5	6	0	1	1	4	2	DPAYTLCSWAAMYCDSM	–
–	–	–	–	–	–	–	–	–	0	0	0	4	8	5	2	0	0	0	0	DPAYWDCLYAAADCAFY	–
–	–	–	–	–	–	–	–	–	0	1	0	4	9	7	1	1	1	0	0	DPAYWDCLYAAWSCDIL	–
–	–	–	–	–	–	–	–	–	0	0	0	2	8	4	0	3	0	0	2	DPAYWHCLYAAASCDDI	–
–	–	–	–	–	–	–	–	–	0	0	0	1	6	6	0	1	0	0	0	DPAYYTCDWAAIYCDYH	–

The next lines start with the molecule.

Molecule	Target Concentration BLANK (phage screen NGS readout) (beta-catenin; first column)	Target Concentration BLANK (phage screen NGS readout) (beta-catenin; fourth column)	Target Concentration BLANK (phage screen NGS readout) (beta-catenin; second column)	Target Concentration BLANK (phage screen NGS readout) (beta-catenin; third column)	Target Concentration 10 (phage screen NGS readout) (beta-catenin)	Target Concentration 30 (phage screen NGS readout) (beta-catenin)	Target Concentration 100 (phage screen NGS readout) (beta-catenin)	Target Concentration 300 (phage screen NGS readout) (beta-catenin)	Target Concentration 1000 (phage screen NGS readout) (beta-catenin; first 1000 column)	Phage library screen NGS readout, Target Concentration 10 (RNF31 PUB domain)	Phage library screen NGS readout, Target Concentration 30 (RNF31 PUB domain)	Phage library screen NGS readout, Target Concentration 100 (RNF31 PUB domain)	Phage library screen NGS readout, Target Concentration 300 (RNF31 PUB domain)	Phage library screen NGS readout, Target Concentration 1000 (RNF31 PUB domain; [1])	Phage library screen NGS readout, Target Concentration 1000 (RNF31 PUB domain; [2])	Phage library screen NGS readout, BLANK (RNF31 PUB domain; column 1 of 5)	Phage library screen NGS readout, BLANK (RNF31 PUB domain; column 2 of 5)	Phage library screen NGS readout, BLANK (RNF31 PUB domain; column 3 of 5)	Phage library screen NGS readout, BLANK (RNF31 PUB domain; column 4 of 5)	Phage library screen NGS readout, BLANK (RNF31 PUB domain; column 5 of 5)	further results
CC(=O)N[C@@H](CC(=O)O)C(=O)N1CCC[C@H]1C(=O)N[C@@H](C)C(=O)N[C@@H](CC(C)C)C(=O)N[C@@H](Cc1c[nH]c2ccccc12)C(=O)N[C@@H](CCC(N)=O)C(=O)N[C@@H](CS)C(=O)N[C@@H](CCC(=O)O)C(=O)N[C@@H](Cc1c[nH]cn1)C(=O)N[C@@H](C)C(=O)N[C@@H](C)C(=O)N[C@@H](CC(C)C)C(=O)N[C@@H](CC(C)C)C(=O)N[C@@H](CS)C(=O)N[C@@H](CC(=O)O)C(=O)N[C@H](C(=O)N[C@@H](Cc1c[nH]cn1)C(N)=O)C(C)C	0	0	2	1	13	27	122	158	246	–	–	–	–	–	–	–	–	–	–	–	Target Concentration 1000 (phage screen NGS readout) (beta-catenin; second 1000 column): 246
CC[C@H](C)[C@H](NC(=O)[C@H](C)NC(=O)[C@H](C)NC(=O)[C@H](Cc1c[nH]c2ccccc12)NC(=O)[C@H](CCC(=O)O)NC(=O)[C@H](CS)NC(=O)[C@H](CC(C)C)NC(=O)[C@H](CCC(=O)O)NC(=O)[C@H](CO)NC(=O)[C@H](C)NC(=O)[C@@H]1CCCN1C(=O)[C@H](CC(=O)O)NC(C)=O)C(=O)N[C@@H](Cc1c[nH]cn1)C(=O)N[C@@H](CS)C(=O)N[C@@H](CC(=O)O)C(=O)N[C@@H](CC(C)C)C(=O)N[C@H](C(N)=O)C(C)C	1	1	2	3	19	41	163	495	605	–	–	–	–	–	–	–	–	–	–	–	Target Concentration 1000 (phage screen NGS readout) (beta-catenin; second 1000 column): 424
DPAADDCVLAAHVCAYF	7	0	1	0	8	46	144	397	407	–	–	–	–	–	–	–	–	–	–	–	Target Concentration 1000 (phage screen NGS readout) (beta-catenin; second 1000 column): 343
DPAAQRCTWAAIHCELI	0	0	0	2	0	0	7	39	25	–	–	–	–	–	–	–	–	–	–	–	Target Concentration 1000 (phage screen NGS readout) (beta-catenin; second 1000 column): 93
DPADDFCMWAAEHCELL	0	0	0	1	10	12	81	226	273	–	–	–	–	–	–	–	–	–	–	–	Target Concentration 1000 (phage screen NGS readout) (beta-catenin; second 1000 column): 227
DPAYSSCSWAAIYCNWT	–	–	–	–	–	–	–	–	–	1	1	5	2	7	4	1	1	4	2	1	–
DPAYWDCMYAAFYCDDI	–	–	–	–	–	–	–	–	–	0	0	0	3	3	8	0	0	0	0	2	–
DPAYWQCIYAAWDCDQM	–	–	–	–	–	–	–	–	–	0	0	1	4	13	6	1	2	2	1	0	–
